These are literature values, as cited in patent publication US20240100071A1, “COMBINATION THERAPY FOR PATIENTS HAVING ACUTE AND/OR PERSISTENT DYSPNEA” (S-Form Pharma, priority 2020, published 2024).

The conditions of this data set: human plasma 24° C., cited from earlier work; for Average ADM recovery (N = 5): 10 ng ADM/ml; for Average loss of immune reactivity: MR-ADM/CT-ADM sandwich immune assay.

Like-named read-outs stand apart in the source and are kept apart here.

As for Human Adrenomedullin [hADM], the “Average loss of immune reactivity” value is given as “Average: 0.9%/h”. Moreover, the “Average ADM recovery (N = 5)” value (0 h) is listed as 100. Besides, under “2 h”, the “Average ADM recovery (N = 5)” value is on record as 99.2 and the “Loss of immune reactivity %/h” value was 0.4 %/h. Also, under “4 h”, the “Average ADM recovery (N = 5)” value is 96.4 and the “Loss of immune reactivity %/h” value is listed as 0.8 %/h. For the same substance, for the setting “8 h”, the “Average ADM recovery (N = 5)” value is listed as 88.2 and the “Loss of immune reactivity %/h” value is on record as 1.5 %/h. The “Average loss of immune reactivity” value (listed as ADM) is 0.9 %/h.
